Assay [1] addresses pp32 (32 kDa murine nuclear phosphoprotein from A20 cells) (murine) (UniProt O35381).
Assay [2] addresses pp32, dephosphorylated (murine) (UniProt O35381).
Assay [3] addresses pp35 (35 kDa murine nuclear phosphoprotein purified from A20 cells) (murine).
Assay [4] deals with pp35, dephosphorylated (murine).

A value given as a limit tells only on which side of the number the result lay.

Three substances from US5726018 can be followed below.

Regarding “protein kinase C from rat brain (80 kDa isoenzyme)”, the 32P incorporation (stoichiometry of phosphorylation) in assay [1], in assay [2], in assay [3] and in assay [4] was below 0.01 mol/mol throughout.

“A 431 cell epidermal growth factor receptor kinase (from UniProt P00533) (enzyme)”: in assay [2], the 32P incorporation (stoichiometry of phosphorylation) is below 0.01 mol/mol.

Turning to “casein kinase II from bovine thymus (enzyme)”, the 32P incorporation (stoichiometry of phosphorylation) in assay [1] is below 0.01 mol/mol; in assay [2] it was 0.08 mol/mol; in assay [3] it was 0.05 mol/mol; in assay [4], 0.76 mol/mol.
